Results published in patent US20120100141A1 (GlaxoSmithKline, published 2012).

B3: Rat serum albumin (RSA) (other, UniProt P02770 25-608, looked up)
chain: EAHKSEIAHRFKDLGEQHFKGLVLIAFSQYLQKCPYEEHIKLVQEVTDFAKTCVADENAENCDKSIHTLFGDKLCAIPKLRDNYGELADCCAKQEPERNECFLQHKDDNPNLPPFQRPEAEAMCTSFQENPTSFLGHYLHEVARRHPYFYAPELLYYAEKYNEVLTQCCTESDKAACLTPKLDAVKEKALVAAVRQRMKCSSMQRFGERAFKAWAVARMSQRFPNAEFAEITKLATDVTKINKECCHGDLLECADDRAELAKYMCENQATISSKLQACCDKPVLQKSQCLAEIEHDNIPADLPSIAADFVEDKEVCKNYAEAKDVFLGTFLYEYSRRHPDYSVSLLLRLAKKYEATLEKCCAEGDPPACYGTVLAEFQPLVEEPKNLVKTNCELYEKLGEYGFQNAVLVRYTQKAPQVSTPTLVEAARNLGRVGTKCCTLPEAQRLPCVEDYLSAILNRLCVLHEKTPVSEKVTKCCSGSLVERRPCFSALTVDETYVPKEFKAETFTFHSDICTLPDKEKQIKKQTALAELVKHKPKATEDQLKTVMGDFAQFVDKCCKAADKDNCFATEGPNLVARSKEALA

Experiments:
[1] = target: T1, Exendin 4, helical linker, DOM7h-14 dAb fusion (DAT0117); experiment: 6CRE-luciferase reporter in CHO cells with human GLP-1R (called GLP-1R binding assay)
T1 construct: also called Exendin 4, helical linker, DOM7h-14 fusion

[2] = target: T2, Exendin 4-DOM7h-14 dAb fusion (DAT0116); experiment: as above
T2 construct: also called Exendin 4 DOM7h-14 fusion

[3] = target: T3, Exendin 4 (G4S linker)3 DOM7h-14 dAb fusion (DAT0115); experiment: as above
T3 construct: also called Exendin 4 (G4S)3 DOM7h-14 fusion

[4] = target: T4, Exendin 4, (G4S)3, linker DOM7h-14-10 fusion (DMS7139); experiment: melanophore functional GLP-1R bioassay
T4 construct: expressed in E. coli with a cleaved OmpT AWA leader; also called DSM7139

[5] = target: T3, Exendin 4 (G4S linker)3 DOM7h-14 dAb …; experiment: SPR (Biacore), biotinylated albumin on SA chip, fusion in flow
Protocol: The analysis was performed using a streptavidin chip (SA) coated with biotinylated serum albumin. 200-1000 resonance units (RUs) of each serum albumin was immobilised on the chip. Flow cell 1 was uncoated, flow cell 2 was coated with HSA, flow cell 3 was coated with RSA and flow cell 4 was coated with CSA.
(§1) Affinity (KD) was calculated from the BIACORE traces by fitting on-rate and off-rate curves to traces generated by concentrations of dAb in the region of the KD.

[6] = target: T5, Exendin 4, (G4S)3, linker DOM7h-11-15 fusion (DMS7143); experiment: SPR (Biacore), albumin on CM5 chip, fusion in flow
T5 construct: expressed in E. coli with a cleaved OmpT AWA leader
Protocol: (§2) The analysis was performed using two CM5 chips (carboxymethylated dextran matrix) that were coated with serum albumin. ˜500 resonance units (RUs) of each serum albumin was immobilised in acetate buffer pH 4.5. The first chip had flow cell 1 uncoated and blocked and flow cell 2 was coated with MSA (560Rus). The second chip had flow cell 1 uncoated and blocked, flow cell 2 was coated with HSA, flow cell 3 was coated with CSA and flow cell 4 was coated with RSA. For all serum albumins, the aim was to coat in the region of 350 RUs of protein onto the chip.
as §1

[7] = target: T4, Exendin 4, (G4S)3, linker DOM7h-14-10 …; experiment: SPR (Biacore), albumin on CM5 chip, fusion in flow
Protocol: as §2, §1

[8] = target: Mouse serum albumin (MSA) (mouse, UniProt P07724 25-608); experiment: SPR (Biacore), albumin on CM5 chip, fusion in flow
Mouse serum albumin (MSA), sequence (P07724 25-608 limits assumed): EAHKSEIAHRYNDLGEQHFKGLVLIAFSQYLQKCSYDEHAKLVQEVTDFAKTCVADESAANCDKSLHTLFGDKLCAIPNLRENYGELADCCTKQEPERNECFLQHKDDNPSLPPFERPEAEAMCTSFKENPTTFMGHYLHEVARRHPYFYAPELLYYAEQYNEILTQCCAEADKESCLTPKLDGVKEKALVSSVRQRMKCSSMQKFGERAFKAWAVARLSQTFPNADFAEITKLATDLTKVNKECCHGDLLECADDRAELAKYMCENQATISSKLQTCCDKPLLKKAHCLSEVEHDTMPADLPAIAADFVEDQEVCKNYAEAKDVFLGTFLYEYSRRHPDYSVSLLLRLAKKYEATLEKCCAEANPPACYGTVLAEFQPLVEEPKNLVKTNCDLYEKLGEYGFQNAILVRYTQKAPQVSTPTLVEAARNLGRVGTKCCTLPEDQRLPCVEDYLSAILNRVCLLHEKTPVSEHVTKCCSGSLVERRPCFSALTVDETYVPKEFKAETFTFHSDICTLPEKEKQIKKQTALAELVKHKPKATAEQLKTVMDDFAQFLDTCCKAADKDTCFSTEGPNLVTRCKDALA
Protocol: (§3) The analysis was performed using a CM5 Biacore chip (carboxymethylated dextran matrix) that was coated with serum albumin. About 1000 resonance units (RUs) of each serum albumin to be tested (human, rat and mouse serum albumin) was immobilised in acetate buffer pH 5.5. […] Each fusion molecule tested was expressed in mammalian tissue culture as described in the example above.
as §1

Rat serum albumin (RSA) = target: B3; experiment: SPR (Biacore), albumin on CM5 chip, fusion in flow
Protocol: as §3, §1

[9] = target: Human serum albumin (HSA) (human, UniProt P02768 25-609); experiment: SPR (Biacore), albumin on CM5 chip, fusion in flow
Protocol: as §3, §1

B1: Human GLP-1 receptor (receptor, UniProt P43220 24-463, looked up)
chain: RPQGATVSLWETVQKWREYRRQCQRSLTEDPPPATDLFCNRTFDEYACWPDGEPGSFVNVSCPWYLPWASSVPQGHVYRFCTAEGLWLQKDNSSLPWRDLSECEESKRGERSSPEEQLLFLYIIYTVGYALSFSALVIASAILLGFRHLHCTRNYIHLNLFASFILRALSVFIKDAALKWMYSTAAQQHQWDGLLSYQDSLSCRLVFLLMQYCVAANYYWLLVEGVYLYTLLAFSVLSEQWIFRLYVSIGWGVPLLFVVPWGIVKYLYEDEGCWTRNSNMNYWLIIRLPILFAIGVNFLIFVRVICIVVSKLKANLMCKTDIKCRLAKSTLTLIPLLGTHEVIFAFVMDEHARGTLRFIKLFTELSFTSFQGLMVAILYCFVNNEVQLEFRKSWERWRLEHLHIQRDSSMKPLKCPTSSLSSGATAGSSMYTATCQASCS
notes: whole, on cells
Q: Which results are given for B1?
A: binding result [1]: binds; binding result [2]: binds; binding result [3]: binds; binding result [4]: binds

B2: Cynomolgus monkey serum albumin (CSA) (other, UniProt A2V9Z4 25-608, looked up)
chain: DTHKSEVAHRFKDLGEEHFKGLVLVAFSQYLQQCPFEEHVKLVNEVTEFAKTCVADESAENCDKSLHTLFGDKLCTVATLRETYGEMADCCAKQEPERNECFLQHKDDNPNLPPLVRPEVDVMCTAFHDNEATFLKKYLYEVARRHPYFYAPELLFFAARYKAAFAECCQAADKAACLLPKLDELRDEGKASSAKQRLKCASLQKFGDRAFKAWAVARLSQKFPKAEFAEVSKLVTDLTKVHTECCHGDLLECADDRADLAKYMCENQDSISSKLKECCDKPLLEKSHCLAEVENDEMPADLPSLAADYVESKDVCKNYAEAKDVFLGMFLYEYARRHPDYSVMLLLRLAKAYEATLEKCCAAADPHECYAKVFDEFQPLVEEPQNLVKQNCELFEQLGEYKFQNALLVRYTKKVPQVSTPTLVEVSRNLGKVGAKCCKLPEAKRMPCAEDYLSVVLNRLCVLHEKTPVSEKVTKCCTESLVNRRPCFSALELDEAYVPKAFNAETFTFHADMCTLSEKEKQVKKQTALVELVKHKPKATKEQLKGVMDNFAAFVEKCCKADDKEACFAEEGPKFVAASQAALA
notes: CSA is not spelled out where it is used; also called cynomolgus serum albumin; cyno serum albumin
Q: What does the source list for B2?
A: Kd [5]: 2000 nM; Kd [6]: 38.9 nM; Kd [7]: 42.3 nM

Q: How did the Kd [5] turn out when B3 was run?
A: 2000 nM

Q: What about the Kd [6] of the same binder?
A: 219 nM

Q: And the Kd [7]?
A: 31.5 nM

B4: Mouse GLP-1 receptor (receptor, UniProt O35659 22-463, looked up)
chain: GPRPQGTTVSLSETVQKWREYRRQCQRFLTEAPLLATGLFCNRTFDDYACWPDGPPGSFVNVSCPWYLPWASSVLQGHVYRFCTAEGLWLHKDNSSLPWRDLSECEESKRGERNFPEEQLLSLYIIYTVGYALSFSALVIASAILVGFRHLHCTRNYIHLNLFASFILRALSVFIKDAALKWMYSTAAQQHQWDGLLSYQDSLGCRLVFLLMQYCVAANYYWLLVEGVYLYTLLAFSVFSEQRIFKLYLSIGWGVPLLFVIPWGIVKYLYEDEGCWTRNSNMNYWLIIRLPILFAIGVNFLIFIRVICIVVSKLKANLMCKTDIKCRLAKSTLTLIPLLGTHEVIFAFVMDEHARGTLRFIKLFTELSFTSFQGLMVAILYCFVNNEVQMEFRKCWERWRLEHLNIQRDCSMKPLKCPTSSVSSGATVGSSVYAATCQSSYS
notes: whole, on cells
Q: Does B4 bind [4]?
A: binds

B5: Rat GLP-1 receptor (receptor, UniProt P32301 22-463, looked up)
chain: GPRPQGATVSLSETVQKWREYRHQCQRFLTEAPLLATGLFCNRTFDDYACWPDGPPGSFVNVSCPWYLPWASSVLQGHVYRFCTAEGIWLHKDNSSLPWRDLSECEESKQGERNSPEEQLLSLYIIYTVGYALSFSALVIASAILVSFRHLHCTRNYIHLNLFASFILRALSVFIKDAALKWMYSTAAQQHQWDGLLSYQDSLGCRLVFLLMQYCVAANYYWLLVEGVYLYTLLAFSVFSEQRIFKLYLSIGWGVPLLFVIPWGIVKYLYEDEGCWTRNSNMNYWLIIRLPILFAIGVNFLVFIRVICIVIAKLKANLMCKTDIKCRLAKSTLTLIPLLGTHEVIFAFVMDEHARGTLRFVKLFTELSFTSFQGFMVAVLYCFVNNEVQMEFRKSWERWRLERLNIQRDSSMKPLKCPTSSVSSGATVGSSVYAATCQNSCS
notes: whole, on cells
Q: Does B5 bind [4]?
A: binds

B6: GLP-1 (7-37) A8G, helical linker, DOM7h-14 dAb fusion (DAT0120) (other)
chain: HGEGTFTSDVSSYLEGQAAKEFIAWLVKGRGKEAAAKEAAAKEAAAKELAAKEAAAKEAAAKEAAAKELAADIQMTQSPSSLSASVGDRVTITCRASQWIGSQLSWYQQKPGKAPKLLIMWRSSLQSGVPSRFSGSGSGTDFTLTISSLQPEDFATYYCAQGAALPRTFGQGTKVEIKR
notes: Single-chain genetic fusion of GLP-1 (7-37) A8G, helical linker and DOM7h-14; also called GLP-1 (7-37) A8G, helical linker, DOM7h-14 fusion; GLP-1 A8G, helical linker, DOM7h-14 fusion
Q: Which Kd [8] does the source give for B6 here?
A: 110 nM

Q: And the Kd (Rat serum albumin (RSA))?
A: 800 nM

Q: And the Kd [9]?
A: 110 nM

B7: 2xGLP-1 (7-37) A8G DOM7h-14 dAb fusion (DAT0114) (other)
chain: HGEGTFTSDVSSYLEGQAAKEFIAWLVKGRHGEGTFTSDVSSYLEGQAAKEFIAWLVKGRDIQMTQSPSSLSASVGDRVTITCRASQWIGSQLSWYQQKPGKAPKLLIMWRSSLQSGVPSRFSGSGSGTDFTLTISSLQPEDFATYYCAQGAALPRTFGQGTKVEIKR
notes: expressed in HEK293E cells, purified on protein L; also called 2xGLP-1 (7-37) A8G DOM7h-14 fusion
Q: How did the Kd [8] turn out when B7 was run?
A: 130 nM

Q: And the Kd (Rat serum albumin (RSA))?
A: 700 nM

Q: What about the Kd [9] of the same binder?
A: 150 nM
